Test [1] concerns the target T1, Rsa1p_(230-381) (S. cerevisiae, UniProt Q08932 230-381).
T1 sequence: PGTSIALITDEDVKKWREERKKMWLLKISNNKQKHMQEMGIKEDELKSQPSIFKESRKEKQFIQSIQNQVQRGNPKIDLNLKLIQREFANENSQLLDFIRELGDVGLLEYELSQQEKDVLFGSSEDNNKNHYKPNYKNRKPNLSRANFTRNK
Nature of the test: native gel or EMSA. (In general: Mobility shift assays separate free from complexed probe on a gel.)

The target of test [2] is T2, His6TRX-Rrp9p (S. cerevisiae, UniProt Q06506 1-573).
T2 sequence: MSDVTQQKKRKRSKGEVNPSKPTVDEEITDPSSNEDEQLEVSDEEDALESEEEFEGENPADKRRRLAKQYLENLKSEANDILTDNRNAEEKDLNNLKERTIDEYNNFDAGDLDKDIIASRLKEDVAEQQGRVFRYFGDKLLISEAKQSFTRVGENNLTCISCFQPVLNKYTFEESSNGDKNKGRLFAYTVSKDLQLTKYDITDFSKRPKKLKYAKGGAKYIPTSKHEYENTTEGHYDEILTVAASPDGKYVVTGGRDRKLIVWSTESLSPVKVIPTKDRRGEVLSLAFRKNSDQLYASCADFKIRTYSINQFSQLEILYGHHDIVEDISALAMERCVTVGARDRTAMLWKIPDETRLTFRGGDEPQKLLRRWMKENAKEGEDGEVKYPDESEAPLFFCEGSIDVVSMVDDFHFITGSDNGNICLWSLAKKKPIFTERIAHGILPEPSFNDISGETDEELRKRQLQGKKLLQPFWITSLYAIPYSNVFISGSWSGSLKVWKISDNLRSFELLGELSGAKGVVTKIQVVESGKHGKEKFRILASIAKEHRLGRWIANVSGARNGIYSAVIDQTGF
Nature of the test: native gel or EMSA.

Substitutions are numbered along the chain they refer to.

B1: Snu13p (recombinant, wild type) (natural protein)
chain: MSAPNPKAFPLADAALTQQILDVVQQAANLRQLKKGANEATKTLNRGISEFIIMAADCEPIEILLHLPLLCEDKNVPYVFVPSRVALGRACGVSRPVIAASITTNDASAIKTQIYAVKDKIETLLI
As to B1, the binding result in test [1] and in test [2] was “binds” each time.

B2: Snu13p variant E72/A (recombinant) (natural protein)
chain: B1 chain with E72A
Consider B2, for which, in test [2], the binding result was “binds”.

These data come from PMC5499572 (Nucleic Acids Research, 2017).
